From US20200024354A1 (OSSIANIX, published 2020)
Like-named read-outs stand apart in the source and are kept apart here. Values belong to the binder of their own block, whether it stands above or below them.

Columns and labels:
[1] = molecular target: T1, recombinant human BAFF-Fc (Sino Biological) (human, UniProt Q9Y275 134-285); experiment: ELISA, periplasmic extract on coated BAFF-Fc (1 µg/mL), anti-FLAG-HRP
T1 construct: Bought reagent; also called hBAFF; not shown: Fc moiety detected by anti-human Fc
Procedure: (§1) After selection rounds three and four, 93 individual clones were picked and grown in 96 deep-well plates in auto-induction medium (Novagen). Periplasmic protein was extracted by osmotic shock as described in Müller M R et al. (Generation and isolation of target-specific single-domain antibodies from shark immune repertoires. Methods Mol Biol. 2012; 907:177-94) and directly used in a binding ELISA. Briefly, Nunc Maxisorp 96-well plates were coated at 1 μg/mL with either BAFF-Fc or HSA and periplasmic fraction, pre-blocked in PBS-0.1% Tween+2.5% milk, was exposed to the coated surface. After washing in PBS-0.1% Tween, bound VNARs were detected using a peroxidase-conjugated anti-FLAG antibody (Sigma). Absorbance at 450 nm was recorded using an Envision multiwell reader (Perkin Elmer) and BAFF-specific clones were selected using the criteria: BAFF signal/HSA signal ≥4. The DNA sequence of positive clones was determined by the Sanger chain termination method (GATC biotech), using the specific oligonucleotide 5′-[…]-3′. Protein alignments were performed using the BioEdit software.

[2] = molecular target: T2, human serum albumin (Sigma) (human, UniProt P02768 25-609); experiment: ELISA, periplasmic extract on coated HSA (1 µg/mL), anti-FLAG-HRP
T2 construct: Negative control coat; also called HSA
T2 sequence (P02768 25-609 limits assumed): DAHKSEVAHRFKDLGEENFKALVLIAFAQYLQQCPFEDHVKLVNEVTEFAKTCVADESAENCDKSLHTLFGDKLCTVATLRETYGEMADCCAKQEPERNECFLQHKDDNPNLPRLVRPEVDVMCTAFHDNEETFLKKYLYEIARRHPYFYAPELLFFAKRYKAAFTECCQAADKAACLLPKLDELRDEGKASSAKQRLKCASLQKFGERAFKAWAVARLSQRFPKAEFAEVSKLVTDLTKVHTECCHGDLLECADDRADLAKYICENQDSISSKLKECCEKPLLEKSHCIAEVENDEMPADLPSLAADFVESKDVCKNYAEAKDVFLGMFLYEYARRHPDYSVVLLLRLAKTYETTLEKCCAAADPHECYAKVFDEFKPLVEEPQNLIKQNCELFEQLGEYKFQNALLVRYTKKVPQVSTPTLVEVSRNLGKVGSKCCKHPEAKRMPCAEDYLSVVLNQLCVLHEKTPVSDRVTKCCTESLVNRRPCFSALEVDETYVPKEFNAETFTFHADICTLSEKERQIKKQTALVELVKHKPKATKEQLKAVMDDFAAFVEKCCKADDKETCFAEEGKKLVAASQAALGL
Procedure: as §1

[3] = molecular target: T1, recombinant human BAFF-Fc (Sino …); experiment: ELISA, purified monomeric VNAR on coated BAFF-Fc, anti-FLAG detection
[4] = molecular target: T1, recombinant human BAFF-Fc (Sino …); experiment: blocking ELISA, VNAR diluted with 1.14 nM BAFF-Fc; binding of BAFF-Fc to coated BAFF-R extracellular domain
[5] = molecular target: T2, human serum albumin (Sigma); experiment: ELISA, periplasmic extract on coated HSA (1 µg/mL), anti-FLAG-HRP; remark: listed apart in the source
[6] = molecular target: T1, recombinant human BAFF-Fc (Sino …); experiment: blocking ELISA, VNAR diluted with 0.5 nM BAFF-Fc; binding of BAFF-Fc to coated TACI
Procedure: (§2) The pre-blocked proteins were then exposed to Nunc Maxisorp 96 well plates which were coated at 1 μg/mL with the recombinant human TACI or BCMA (Peprotech), preblocked in (PBS-0.1% Tween+2.5% Milk). After washing in PBS-0.1% Tween, BAFF bound to its receptor was detected via its Fc moiety using a peroxidase-conjugated anti-human Fc (Sigma). Absorbance at 450 nm was recorded using an Envision multiwell reader (Perkin Elmer) and IC50 values were calculated by fitting the curves (non-linear regression) using GraphPad Prism®. The results are shown in FIG. 15 and the fitted IC50 values are tabulated below.

[7] = molecular target: T1, recombinant human BAFF-Fc (Sino …); experiment: blocking ELISA, VNAR diluted with 0.5 nM BAFF-Fc; binding of BAFF-Fc to coated BCMA
Procedure: as §2

[8] = molecular target: T1, recombinant human BAFF-Fc (Sino …); experiment: blocking ELISA, binding of BAFF-Fc to coated BR3 (BAFF-R); repeats Table 2
[9] = molecular target: T1, recombinant human BAFF-Fc (Sino …); experiment: cell-based or functional assay
APRIL (Sigma) = molecular target: T3, APRIL (Sigma) (UniProt O75888 105-250, limits assumed); experiment: ELISA, periplasmic extract on coated APRIL (1 µg/mL), anti-FLAG-HRP
T3 sequence (looked up): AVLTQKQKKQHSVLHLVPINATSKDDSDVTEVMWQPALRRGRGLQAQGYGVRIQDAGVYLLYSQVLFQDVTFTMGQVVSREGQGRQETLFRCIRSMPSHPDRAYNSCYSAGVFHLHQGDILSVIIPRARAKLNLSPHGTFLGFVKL
Procedure: Clones blocking the interaction between BAFF and its three receptors were tested for their ability to cross-react with BAFF's closest related protein, APRIL. Clones were grown in a 96 well format, periplasmic fraction was extracted by osmotic shock as previously described and directly used in a binding ELISA. Nunc Maxisorp 96 well plates were coated at 1 μg/mL with either BAFF-Fc (Sino Biological), HSA (Sigma), or APRIL (Sigma) and periplasmic fraction, pre-blocked in PBS-0.1% Tween+2.5% Milk, was exposed to the coated surface. After washing in PBS-0.1% Tween, bound VNARs were detected using a peroxidase-conjugated anti-FLAG antibody (Sigma). Absorbance at 450 nm was recorded using an Envision multiwell reader (Perkin Elmer).

[10] = molecular target: recombinant mouse BAFF (R&D Systems) (mouse, UniProt Q9WU72 127-309); experiment: Mouse cross-reactivity grade (binds to both human and mouse BAFF); assay not described
Chain of recombinant mouse BAFF (R&D Systems) (Q9WU72 127-309 limits assumed): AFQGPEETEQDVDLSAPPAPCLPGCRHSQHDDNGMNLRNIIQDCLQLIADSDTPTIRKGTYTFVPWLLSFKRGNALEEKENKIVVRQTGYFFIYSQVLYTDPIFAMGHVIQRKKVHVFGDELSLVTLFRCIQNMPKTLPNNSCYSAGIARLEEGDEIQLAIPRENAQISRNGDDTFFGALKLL

B1: ID2-101C03 (VNAR)
chain: AQAAARVDQTPRSVTKETGESLTINCVLRDSICALSSTHWYRKKSGSTNEESISLGGRYVETVNSGSKSFSLKINDLTVEDSGTYRCKVTRYVVFSGSTCRMRRADVYGGGTVVTMNAASGAHHHHHHGADYKDDDDK
notes: Nurse shark VNAR single domain, monomer in periplasmic extract
binding result [1]: binds

B2: ID2-101B01 (VNAR)
VNAR: AARVDQTPQTITKETGESLTINCVLRDSNCALSSTYWYRKKSGSTNEESISKGGRYVETVNSGSKSFSLRINDLTVEDSGTYRCNVAPTIISGCSIKRRDVYGGGTAVTVNA
notes: Nurse shark VNAR single domain, monomer
binding result [2]: no binding | EC50 [3]: 7.4 nM | IC50 [4]: 91.2 nM

B5: ID2-101C02 (VNAR)
VNAR: AARVDQTPQTITKETGESLTINCVLRDNNCALSTTYWYRKKSGSTNEENISKGGRYVETVNSGSKSFSLKINDLTVKDSGTYRCKVTRDPLFCSYRASKRHDVYGGGTVVTVNA
notes: as for B1
binding result [1]: binds

B6: ID2-101A01 (VNAR)
VNAR: AARVDQTPQTITKETGESLTINCVLRDSNCALSNLYWYRKKSGSTNEESISLGGRYVETVNSGSKSFSLRINDLTVEDSGTYRCKVRRARVIGGEYCRVQWQDVYGGGTAVTVNA
notes: as for B1
binding result [1]: binds

B7: ID2-101B05 (VNAR)
VNAR: AARVDQTPRSVTKETGESLTINCVLRDSICALSSTHWYRKKSGSTNEESISKGGRYVETVNSGSKSFSLRINDLTVEDSGTYRCKVNHDLLTSSRRCQSQIKDVYGGGTVVTVNA
notes: as for B2
binding result [2]: no binding | binding result (APRIL (Sigma)): no binding | EC50 [3]: 11.8 nM | IC50 [4]: 148 nM

B11: ID2-101B03 (VNAR)
VNAR: AARVDQTPRSVTKETGESLTINCVLRDNNCALSTTYWYRKKSGSTNEENISKGGRYVETVNSGSKSFSLRINDLTVEDSGTYRCKVKPDLLFCSSSGLGLIQDVYGGGTAVTVNA
notes: as for B1
binding result [1]: binds

B12: ID2-101A09 (VNAR)
VNAR: AARVDQTPQTITKETGESLTINCVLRDNNCALSTTYWYRKKSGSTNEESISKGGRYVETVNSGSKSFSLRINDLTVEDSGTYRCKVREDPLMCRYYLDRYRDVYGGGTVVTVNA
notes: as for B2
binding result [5]: no binding | IC50 [6]: 27.2 nM | binding result (APRIL (Sigma)): no binding | IC50 [7]: 23.6 nM | EC50 [3]: 4.9 nM | binding result [10]: binds | IC50 [8]: 9.7 nM | CELLULAR IC50 [9]: 215 nM | IC50 [4]: 9.7 nM

B16: ID2-101A03 (VNAR)
VNAR: AARVDQTPQTITKETGESLTINCVLRDNNCALSTTYWYRKKSGSTNEENISKGGRYVETVNSGSKSFSLKINDLTVEDSGTYRCKVRVDRLLCGWRVGRRQLGDVYGGGTVVTVNA
notes: as for B2
binding result [2]: no binding | binding result (APRIL (Sigma)): no binding | EC50 [3]: 17.2 nM | IC50 [4]: 12.3 nM

The remaining binders from weak to strong by EC50 [3], led by results:

binding result [5]: no binding | EC50 [3]: 4.57 nM | IC50 [4]: 49.2 nM
B10: ID2-101A12 (VNAR)
VNAR: AARVDQTPQTVTKETGESLTINCVLRDASYALGSTCWYRKKSGSRNEESISKGGRYVETVNSGSKSFSLRINDLTVEDSGTYRCKVRDPLLFPRDRCDGESKDVYGGGTVVTVNA
notes: as for B2

binding result [2]: no binding | binding result (APRIL (Sigma)): no binding | EC50 [3]: 2.7 nM | IC50 [4]: 9.32 nM
B4: ID2-101B12 (VNAR)
VNAR: AARVDQTPQTITKETGESLTINCVLRDSNCALSSTYWYRKKSGSTNEESISKGGRYVETVNSGSKSFSLRINDLTVEDSGTYRCKVFIDPLLCSRDALGFSDVYGDGTAVTVNA
notes: as for B2

binding result [2]: no binding | binding result (APRIL (Sigma)): no binding | EC50 [3]: 2.49 nM | IC50 [4]: 6.85 nM
B8: ID2-101B11 (VNAR)
VNAR: AARVDQTPRSVTKETGESLTINCVLRDSNCALSSTYWYRKKSGSTNEENISKGGRYVETVNSGSKSFSLRINDLTVEDSGTYRCKVMLDPLLCPALLESMTDVYGGGTAVTVNA
notes: as for B2

binding result [2]: no binding | EC50 [3]: 2.13 nM | IC50 [4]: 3.85 nM
B14: ID2-101C01 (VNAR)
VNAR: AARVDQTPQTITKETGESLTINCVLRDNNCALSTTYWYRKKSGSTNEENISKGGRYVETVNSGSKSFSLRINDLTVEDSGTYRCKVRLDLLLCRNGSTNSIDVYGGGTAVTVNA
notes: as for B2

binding result [2]: no binding | IC50 [6]: 57.8 nM | binding result (APRIL (Sigma)): no binding | IC50 [7]: 17.4 nM | EC50 [3]: 1.5 nM | binding result [10]: binds | IC50 [8]: 13.8 nM | CELLULAR IC50 [9]: 135 nM | IC50 [4]: 13.8 nM
B9: ID2-101A05 (VNAR)
VNAR: AARVDQTPQTITKETGESLTINCVLRDNNCALSTTYWYRKKSGSTNEENISKGGRYVETVNSGSKSFSLRINDLTVEDSGTYRCKVSKDWLLCRDRGRRETDVYGDGTAVTVNA
notes: Nurse shark VNAR single domain, tested as monomer

binding result [2]: no binding | IC50 [6]: 14.1 nM | binding result (APRIL (Sigma)): no binding | IC50 [7]: 10.5 nM | EC50 [3]: 1 nM | binding result [10]: binds | IC50 [8]: 2.8 nM | CELLULAR IC50 [9]: ~100 nM | IC50 [4]: 2.8 nM
B13: ID2-101B10 (VNAR)
VNAR: AARVDQTPQTITKETGESLTINCVLRDSNCALSSTYWYRKKSGSTNEESISKGGRYVETVNSGSKSFSLRINDLTVEDSGTYRCKVRIDPLLCNASYVKWDDVYGGGTVVTVNA
notes: as for B2

binding result [5]: no binding | IC50 [6]: 24 nM | IC50 [7]: 18.9 nM | EC50 [3]: 0.8 nM | IC50 [8]: 6.8 nM | CELLULAR IC50 [9]: 60 nM | IC50 [4]: 6.8 nM
B3: ID2-101B07 (VNAR)
VNAR: AARVDQTPRSVTKETGESLTINCVLRDSICALSSTHWYRKKSGSTNEESISKGGRYVETVNSGSKSFSLRINDLTVEDSGTYRCKVHGGRSTGLCGDVLLAGDVYGGGTAVTVNA
notes: as for B2

binding result [2]: no binding | IC50 [6]: 82.7 nM | binding result (APRIL (Sigma)): no binding | IC50 [7]: 24.5 nM | EC50 [3]: 0.5 nM | IC50 [8]: 6.8 nM | CELLULAR IC50 [9]: 58 nM | IC50 [4]: 6.8 nM
B15: ID2-101A07 (VNAR)
VNAR: AARVDQTPQTITKETGESLTINCVLRDSNCALSNLYWYRKKSGSTNEESISLGGRYVETVNSGSKSFSLRINDLTVEDSGTYRCKVQLPYDPLTKECILGRMDVYGDGTAVTVNA
notes: as for B9
